Test results: PMC9483561 (The Journal of Biological Chemistry, 2022)

Biological target: integrin α5β1 ectodomain (α5 F1–Y954/β1 Q1–D708) (UniProt P08648;P05556)
Experiment: fluorescence polarisation

integrin α5β1 ectodomain (α5 F1–Y954/β1 Q1–D708), sequence (P08648 42-995, chain 1 of 2): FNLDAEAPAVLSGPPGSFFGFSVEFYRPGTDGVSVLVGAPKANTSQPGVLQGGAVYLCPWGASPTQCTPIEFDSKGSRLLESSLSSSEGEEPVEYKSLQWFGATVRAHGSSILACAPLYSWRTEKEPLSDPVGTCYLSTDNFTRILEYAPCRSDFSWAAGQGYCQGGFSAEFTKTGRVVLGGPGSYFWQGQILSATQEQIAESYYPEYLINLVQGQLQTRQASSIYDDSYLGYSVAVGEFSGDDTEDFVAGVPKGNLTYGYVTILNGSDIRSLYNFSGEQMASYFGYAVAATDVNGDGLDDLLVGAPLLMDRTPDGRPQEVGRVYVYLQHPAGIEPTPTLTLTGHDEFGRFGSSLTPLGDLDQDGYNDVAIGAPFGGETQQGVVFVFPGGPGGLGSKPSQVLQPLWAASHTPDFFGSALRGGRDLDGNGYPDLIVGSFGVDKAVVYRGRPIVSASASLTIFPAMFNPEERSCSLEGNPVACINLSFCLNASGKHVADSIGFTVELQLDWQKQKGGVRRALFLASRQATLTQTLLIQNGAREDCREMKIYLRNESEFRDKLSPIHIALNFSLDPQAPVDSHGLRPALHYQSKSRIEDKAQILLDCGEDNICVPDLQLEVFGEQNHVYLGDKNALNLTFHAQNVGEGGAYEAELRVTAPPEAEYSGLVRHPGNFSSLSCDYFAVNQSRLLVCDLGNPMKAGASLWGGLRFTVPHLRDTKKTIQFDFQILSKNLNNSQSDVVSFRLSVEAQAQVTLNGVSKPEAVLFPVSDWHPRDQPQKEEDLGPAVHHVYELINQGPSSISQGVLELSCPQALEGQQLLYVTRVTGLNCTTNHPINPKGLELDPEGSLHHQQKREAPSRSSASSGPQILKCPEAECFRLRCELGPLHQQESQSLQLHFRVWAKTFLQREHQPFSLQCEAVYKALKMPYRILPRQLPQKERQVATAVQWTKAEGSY
integrin α5β1 ectodomain (α5 F1–Y954/β1 Q1–D708), sequence (P05556 21-728, chain 2 of 2): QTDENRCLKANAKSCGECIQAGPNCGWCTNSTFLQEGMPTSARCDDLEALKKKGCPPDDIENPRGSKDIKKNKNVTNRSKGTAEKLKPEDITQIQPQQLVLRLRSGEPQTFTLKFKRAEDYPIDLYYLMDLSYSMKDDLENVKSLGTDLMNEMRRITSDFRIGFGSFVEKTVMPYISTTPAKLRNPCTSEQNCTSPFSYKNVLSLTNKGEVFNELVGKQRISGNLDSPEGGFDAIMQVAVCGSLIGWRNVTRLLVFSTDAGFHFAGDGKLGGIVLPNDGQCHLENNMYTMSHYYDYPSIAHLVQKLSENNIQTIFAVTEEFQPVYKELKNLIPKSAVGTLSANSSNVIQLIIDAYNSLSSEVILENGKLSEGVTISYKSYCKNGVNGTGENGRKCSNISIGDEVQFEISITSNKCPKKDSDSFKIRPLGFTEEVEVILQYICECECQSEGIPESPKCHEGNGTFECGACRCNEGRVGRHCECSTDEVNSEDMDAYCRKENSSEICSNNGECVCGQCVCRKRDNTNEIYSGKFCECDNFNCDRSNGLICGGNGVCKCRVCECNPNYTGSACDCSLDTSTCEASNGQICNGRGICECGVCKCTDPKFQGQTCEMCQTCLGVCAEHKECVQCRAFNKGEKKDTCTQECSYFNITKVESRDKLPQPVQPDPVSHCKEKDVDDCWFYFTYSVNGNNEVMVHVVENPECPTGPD

- binding result: binds
B1: fibronectin fragment Fn10 (V1416–T1509) (domain or fragment)
chain: not shown
